Data taken from patent US20250179196A1 (Janssen / Centocor, published 2025).
Numbering of substitutions follows the chain as printed.

T1: rat IL-23R extracellular domain (ECD) protein (rat)
T1 construct: also called rat IL-23R ECD; F1LX96 amino acids 24-354
T1 chain: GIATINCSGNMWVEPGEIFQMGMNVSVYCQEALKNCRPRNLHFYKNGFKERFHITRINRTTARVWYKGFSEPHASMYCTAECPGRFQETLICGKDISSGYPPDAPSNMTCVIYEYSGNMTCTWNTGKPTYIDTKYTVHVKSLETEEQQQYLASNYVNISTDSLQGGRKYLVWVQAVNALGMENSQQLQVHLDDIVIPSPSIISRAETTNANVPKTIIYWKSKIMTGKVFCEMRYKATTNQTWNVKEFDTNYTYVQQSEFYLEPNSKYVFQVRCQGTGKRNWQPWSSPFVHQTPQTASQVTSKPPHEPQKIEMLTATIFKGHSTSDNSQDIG

T2: Recombinant human IL-23 receptor (IL-23R) extracellular domain (ECD) protein (human, UniProt Q5VWK5 24-355)
T2 construct: also called human IL-23R ECD; hu IL-23R ECD
T2 sequence: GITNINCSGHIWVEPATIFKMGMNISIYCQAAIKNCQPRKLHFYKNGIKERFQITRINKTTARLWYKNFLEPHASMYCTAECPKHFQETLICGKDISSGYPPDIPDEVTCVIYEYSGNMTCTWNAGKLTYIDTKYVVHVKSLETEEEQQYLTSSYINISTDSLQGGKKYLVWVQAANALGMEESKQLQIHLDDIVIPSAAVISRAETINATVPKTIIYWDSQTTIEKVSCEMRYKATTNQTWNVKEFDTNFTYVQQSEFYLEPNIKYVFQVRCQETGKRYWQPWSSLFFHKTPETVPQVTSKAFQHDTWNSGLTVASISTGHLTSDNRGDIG

B1: I23RB65 (antibody, mouse IgG2a, kappa, V domains shown)
VH: EVQLQQSGPELVKPGASVKISCKASGYTFTDHTMDWVKQSHGKSLEWIGYIYPKSGNAAYSQKFKSEATLTVDKSSSTAYMEFHSLTSEDSAVYYCARWGLRRDGFTYWGQGTSVTVSS
VL: QIVLTQSPASLAVSLGQRATISCRASQSVSTSSYNYIHWYQQKPGQPPKLLIKYASNLESGVPARFSGSGSGTDFTLNIHPVEEDDTATYYCQHTWEIPYTFGSGTKLEIKR
notes: mouse immunization; mouse IgG2a/kappa
B2: I23RB94 (antibody, mouse IgG2a, kappa, V domains shown)
VH: DVQLQESGPELKKPGETVKISCKASGYTFTNYGMNWVRQAPGKSLKWMGWINTNTGEPAYAEEFKGRFAFSLETSASTAYLQINNLKNEDMATYFCARVRQTARATRGYFDVWGTGTTVTVSS
VL: DIVMTQSHKFMSTSVGDRVSITCKASQDVNTAVAWYQQKPGQSPKLLIYSAFYRYPGVPDRFTGSGSGTDFTFTINSVQAEDLAVYCCQQHYTSPLTFGDGTRLEIKR
notes: as for B1
B3: I23RB162 (antibody, mouse IgG2a, kappa, V domains shown)
VH: EFQLQQSGPELVKPGASVKMSCKASGYTFTNYVMHWVKQKPGQGLEWIGYINPYNDGTKYNEKFKGKATLTSDKSSSTAYMELSSLTSEDSAVYYCARSRTGTRWYFDVWGAGTTVTVSS
VL: DIVMTQSQKFMSTSVGDRVSVTCKASQNVGTNVAWYQQKPGQSPKALIYSASYRYSGVPDRFTGSGSGTDFTLTISNVQSEDLAEYFCQQYNSYPFTFGSGTKLEIKR
notes: as for B1
B4: I23RB160 (antibody, mouse IgG2a, kappa, V domains shown)
VH: QVQLKESGPDLVKPSQSLSLTCTVTGYSITSGYNWHWIRQFPGNKLEWMGYIHYSSGTIYNPSLKSRISITRDTSKNQFFLQLNSVTTEDTGTYYCARQLGLKAMDYWGQGTSVTVSS
VL: DIVMTQSHKFMSTSVGDRVSITCKASQDVRTAVAWYQQKPGQSPKLLIHSASYRYTGVPDRFTGSGSGTDFTFTISSVQVEDLAVYYCQQHYTTPYTFGSGTKLEIKR
notes: as for B1
B5: I23RB156 (antibody, mouse IgG2a, kappa, V domains shown)
VH: QVQLKESGPGLVAPSQSLSITCTVSGFSLTSYAINWVRQPPGKGLEWLGVIWTGGGTNYNSVFKSRLSISKDNSKSQIFLKMISLQTDDTARYYCARNRDYSNYRWYFDVWGAGTTLTVSS
VL: B2 VL with N30S, Q42R, P56T, N76G, C87Y, T93S, S94I, D100A, R103K, I106L
notes: as for B1
B6: I23RB155 (antibody, mouse IgG2a, kappa, V domains shown)
VH: QVQLKESGPGLVKPSQSLSLTCSVTGYSITSGHSWNWIRQFPGNKLEWMGYISYDGTNDYNPSLKNRISITRDTSKNQFFLNLNSVTTEDTVTYYCARGGGYYGGTYRVFADWGQGTTLTVSS
VL: QIVLSQSPASLAVSLGQRATISCRTSESVDTYGNSFIYWYQQKPGQPPKLLIYRASNLESGIPARFSGSGSRTDFTLTINPVEADDVATYYCQQGNKDPYTFGSGTKLEMKR
notes: as for B1
B7: I23RB153 (antibody, mouse IgG2a, kappa, V domains shown)
VH: EVKLVESGGGLVQPGGSLKLSCAASGFTFSSDTMSWVRQTPEKRLELVAEISSNGGSTYHIDTVKGRFTISRDNAKNTLYLQMSSLKSEDTAMYYCASPGYPWFAYWGQGTTVTVSA
VL: DIVMTQSHRFMSTSVGERVSITCKASQDVGNAVAWYQQKPGQSPKLLIYWTSTRHNGVPDRFTGSGSGTDFTLTISNVQGEDLADYFCQQYNRYPLTFGSGTKLEIKR
notes: as for B1
B8: I23RB150 (antibody, mouse IgG2a, kappa, V domains shown)
VH: QIQLVQSGPELKKPGETVKISCKASAYTFTNYGMNWVKQAPGKGLKWMGWIKTNTGEPTYAEEFKGRFAFSLETSASTAYLQINNLKNEDTATYFCARSRQLGLRYYFDYWGQGTTLTVSS
VL: B4 VL with D17G, R30S, K45R, H49Y, V80A, Y86F, T93S, K103R
notes: as for B1
B9: I23RB148 (antibody, mouse IgG2a, kappa, V domains shown)
VH: DVQLQESGPDLVKPSQSLSLTCTVTGYSITSGYNWHWIRQFPGNKLEWMGYIHSSGTTNYSPSLRSRLSITRDTSKNQFFLQLNSVTTEDTATYYCTRQLGLKAMEYWGQGTTLTVSS
VL: B4 VL with I21L, D28E, S43P, H49Y, S76I, V80A, T97S
notes: as for B1
B10: I23RB144 (antibody, mouse IgG2a, kappa, V domains shown)
VH: EVQLQQSGPELVKPGASVKMSCKASGYTFTSYIIHWVKQKPGQGLEWIGYIDPYNDDTKYNEKFKGKATLTSDKSSSTAYMEFSSLTSEDSAVYYCARLGSINYYDGSYFDYWGQGTSVTVSS
VL: DIVMTQSPLTLSVIIGQSASISCKSSQSLLDSDGKTYLNWLLQRPGQSPKRLMYLVSKLDSGVPDRFTGSGSGTDFTLKISRVEAEDLGVYYCWQGIHFPLTFGSGTRLEIKR
notes: as for B1
B11: I23RB42 (antibody, mouse IgG2a, kappa, V domains shown)
VH: EVQLQQSGAELVKPGASVKISCKASGYSFTDYIMNWVKQSHGKSLEWIGNINPYFGFTSYNQEFKGKATLTVDKSSSTAYMLLNSLTSEDSAVYYCSRGSYYGYETFFDYWGQGTTLTVSS
VL: DIVLTQTAPSVPVTPGESVSISCRSSKSLLHSNGNTYLYWFLQRPGQSPQLLIYRMSNLASGVPDRFSGSGSGTAFTLRISRVEAEDVGVYYCMQHLEYPYTFGSGTRLEIKR
notes: as for B1

Molecular target: T1, rat IL-23R extracellular domain (ECD) …
Test: SPR Biacore 8K, supernatant
Procedure, shortened: (§1)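 Antibodies (~150 RU) were captured and human or rat IL-23R ECD injected at 0.8–500 nM in 5-fold steps, at 25 °C in HBS-P+ with 100 μg/ml BSA. Association ran 3 min at 50 μL/min, followed by 30 min dissociation. Ka, Kd and KD came from a Langmuir 1:1 fit.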

| binding result | Kd [nM] | koff [s⁻¹] | kon [M⁻¹ s⁻¹] | Binder |
| --- | --- | --- | --- | --- |
| no binding (tested: 500 nM) | – | – | – | B1 |
| no binding (tested: 500 nM) | – | – | – | B2 |
| no binding (tested: 500 nM) | – | – | – | B3 |
| no binding (tested: 500 nM) | – | – | – | B4 |
| no binding (tested: 500 nM) | – | – | – | B5 |
| no binding (tested: 500 nM) | – | – | – | B6 |
| – | 92.1 | 0.00548 | 59500 | B7 |
| no binding (tested: 500 nM) | – | – | – | B8 |
| no binding (tested: 500 nM) | – | – | – | B9 |
| no binding (tested: 500 nM) | – | – | – | B10 |

What follows are binders tested against T2, Recombinant human IL-23 receptor … (assay: SPR Biacore 8K, purified, analysis 1).
Experimental: (§2) Affinity by SPR using Biacore 8K. Affinity measurements using Surface Plasmon Resonance (SPR) were performed using a Biacore 8K system (Cytiva). […] Approximately 9000-10000 RU (response units) of mAbs were immobilized. The kinetic experiments were performed at 25° C. in running buffer 1× of (HBS-P+ Buffer 10× (Cytiva #BR100671)+100 μg/ml BSA). To perform kinetic experiments, approximately 150 RU of mAbs were captured followed by injections of human IL-23R or rat IL-23R at concentrations ranging from 0.8 nM to 500 nM (in a 5-fold serial dilution). The association phase was monitored for 3 minutes at 50 μL/min, then followed by 30 minutes of buffer flow (dissociation phase). […] The collected data were processed using Biacore insight Evaluation software (Version 3.0.12.15655). The kinetic analysis of the data was performed using a Langmuir 1:1 binding model. The result for each mAb was reported in the format of Ka (On-rate), Kd (Off-rate) and KD (equilibrium dissociation constant).

| Kd [nM] | koff [s⁻¹] | kon [M⁻¹ s⁻¹] | Binder |
| --- | --- | --- | --- |
| < 0.0597 | < 2.89e-05 | 484000 | B1 |
| 0.0725 | 5.76e-05 | 795000 | B11 |
| 0.8 | 0.00063 | 787000 | B2 |

These binders were tested against T2, Recombinant human IL-23 receptor … (assay: SPR Biacore 8K, purified, analysis 2).
Experimental: as §2

| Kd [nM] | koff [s⁻¹] | kon [M⁻¹ s⁻¹] | Binder |
| --- | --- | --- | --- |
| < 0.0723 | < 2.89e-05 | 400000 | B1 |
| 0.117 | 6.25e-05 | 535000 | B11 |
| 1.15 | 0.000753 | 656000 | B2 |

Each binder was assayed against T2, Recombinant human IL-23 receptor … (assay: SPR Biacore 8K, supernatant, analysis 1).
Procedure, shortened: as §1

| Kd [nM] | koff [s⁻¹] | kon [M⁻¹ s⁻¹] | Binder |
| --- | --- | --- | --- |
| 44.6 | 0.0237 | 531000 | B3 |
| 16.9 | 0.00955 | 567000 | B4 |
| 0.403 | 0.000218 | 542000 | B5 |
| < 0.0784 | < 2.89e-05 | 369000 | B6 |
| 1.64 | 0.000226 | 138000 | B7 |
| 96.5 | 0.0329 | 341000 | B8 |
| 0.874 | 0.000459 | 525000 | B9 |
| 30.6 | 0.00272 | 89000 | B10 |

Each binder was assayed against T2, Recombinant human IL-23 receptor … (assay: SPR Biacore 8K, supernatant, analysis 2).
Procedure, shortened: as §1

| Kd [nM] | koff [s⁻¹] | kon [M⁻¹ s⁻¹] | Binder |
| --- | --- | --- | --- |
| 0.11 | 4.58e-05 | 416000 | B1 |
| 0.108 | 6.29e-05 | 582000 | B11 |
| 1 | 0.000686 | 685000 | B2 |
| 62.2 | 0.0216 | 347000 | B3 |
| 13.8 | 0.0142 | 1.02e+06 | B4 |
| 0.588 | 0.000259 | 441000 | B5 |
| < 0.121 | < 2.89e-05 | 239000 | B6 |
| 2.33 | 0.000318 | 137000 | B7 |
| 112 | 0.0376 | 334000 | B8 |
| 0.766 | 0.000382 | 498000 | B9 |
| 53.3 | 0.00277 | 52000 | B10 |
